Data from article doi:10.1101/2022.03.29.486248 (bioRxiv, 2022).

B1: SufC (subunit of the SufBC2D complex) (natural protein, Escherichia coli)
chain: MLSIKDLHVSVEDKAILRGLSLDVHPGEVHAIMGPNGSGKSTLSATLAGREDYEVTGGTVEFKGKDLLALSPEDRAGEGIFMAFQYPVEIPGVSNQFFLQTALNAVRSYRGQETLDRFDFQDLMEEKIALLKMPEDLLTRSVNVGFSGGEKKRNDILQMAVLEPELCILDESDSGLDIDALKVVADGVNSLRDGKRSFIIVTHYQRILDYIKPDYVHVLYQGRIVKSGDFTLVKQLEEQGYGWLTEQQ
B2: SufD (subunit of the SufBC2D complex, wild type) (natural protein, Escherichia coli)
chain: MAGLPNSSNALQQWHHLFEAEGTKRSPQAQQHLQQLLRTGLPTRKHENWKYTPLEGLINSQFVSIAGEISPQQRDALALTLDSVRLVFVDGRYVPALSDATEGSGYEVSINDDRQGLPDAIQAEVFLHLTESLAQSVTHIAVKRGQRPAKPLLLMHITQGVAGEEVNTAHYRHHLDLAEGAEATVIEHFVSLNDARHFTGARFTINVAANAHLQHIKLAFENPLSHHFAHNDLLLAEDATAFSHSFLLGGAVLRHNTSTQLNGENSTLRINSLAMPVKNEVCDTRTWLEHNKGFCNSRQLHKTIVSDKGRAVFNGLINVAQHAIKTDGQMTNNNLLMGKLAEVDTKPQLEIYADDVKCSHGATVGRIDDEQIFYLRSRGINQQDAQQMIIYAFAAELTEALRDEGLKQQVLARIGQRLPGGAR

Biological target: T1, SufB (subunit of the His6-SufBC2D complex, wild type) (Escherichia coli, UniProt P77522 1-495)
T1 sequence: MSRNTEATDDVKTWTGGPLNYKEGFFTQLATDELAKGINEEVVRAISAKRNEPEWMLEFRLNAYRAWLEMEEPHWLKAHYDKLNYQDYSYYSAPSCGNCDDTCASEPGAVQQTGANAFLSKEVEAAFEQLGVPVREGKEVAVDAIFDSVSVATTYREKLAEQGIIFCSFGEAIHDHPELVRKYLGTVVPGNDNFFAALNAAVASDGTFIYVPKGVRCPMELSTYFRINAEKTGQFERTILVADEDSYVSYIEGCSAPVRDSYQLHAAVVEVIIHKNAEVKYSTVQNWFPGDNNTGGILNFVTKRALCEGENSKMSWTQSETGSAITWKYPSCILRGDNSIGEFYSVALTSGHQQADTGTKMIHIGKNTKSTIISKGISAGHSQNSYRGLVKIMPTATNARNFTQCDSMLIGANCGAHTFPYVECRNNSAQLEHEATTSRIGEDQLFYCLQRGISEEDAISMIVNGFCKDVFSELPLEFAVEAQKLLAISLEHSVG
Assay: SEC-MALS

Binder	stoichiometry N
B1	2
B2	1
